Assay results: patent US20100015126A1, “Methods of Binding of Cross-Beta Structures By Chaperones” (priority 2006, published 2010)

Key:
[1] = target: Hypothetical protein/Heat shock 70 kDa protein 5 (glucose-regulated protein, 78 kDa = GRP78 = BiP = HSPA5), as identified in eluates (human) (UniProt P11021); assay: BiP-Sepharose pull-down, RA synovial fluid sample 2B, 1 M NaCl eluate, MS; BiP may stem from the column
[2] = target: IGLC1 protein (immunoglobulin lambda C1)/immunoglobulin lambda chain/immunoglobulin C1 segment protein (fragment) (human) (UniProt P0CG04); assay: BiP-Sepharose pull-down, RA patient III serum (B4), MS of urea eluate; may be indirect
IGLC1 protein (immunoglobulin lambda C1)/immunoglobulin lambda chain/immunoglobulin C1 segment protein (fragment) (human), sequence (P0CG04 whole entry, the tested form may be a part): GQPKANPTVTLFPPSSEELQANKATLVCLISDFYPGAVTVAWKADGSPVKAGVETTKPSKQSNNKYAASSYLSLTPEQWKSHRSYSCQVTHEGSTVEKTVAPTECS

[3] = target: Hypothetical protein DKFZp686I04196 (Fragment)/Immunoglobulin heavy constant gamma 2 (G2m marker)/Ig gamma-2 chain C region (human) [IgG part: P01859]; assay: as above
Hypothetical protein DKFZp686I04196 (Fragment)/Immunoglobulin heavy constant gamma 2 (G2m marker)/Ig gamma-2 chain C region (human) [IgG part: P01859], sequence (P01859 other isoform, or with tags, fused parts or gaps limits assumed): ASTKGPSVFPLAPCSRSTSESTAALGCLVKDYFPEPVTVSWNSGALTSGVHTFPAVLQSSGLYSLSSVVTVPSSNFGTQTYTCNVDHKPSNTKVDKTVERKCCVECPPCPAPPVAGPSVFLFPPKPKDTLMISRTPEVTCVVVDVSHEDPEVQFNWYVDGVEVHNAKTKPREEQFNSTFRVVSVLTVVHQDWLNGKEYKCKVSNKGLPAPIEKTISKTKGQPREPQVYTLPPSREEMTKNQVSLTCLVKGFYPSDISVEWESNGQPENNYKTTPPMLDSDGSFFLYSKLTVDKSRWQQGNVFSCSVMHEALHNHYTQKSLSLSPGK

[4] = target: Complement component 4 binding protein, alpha, C4b-binding protein alpha chain precursor (C4bp) (human) (UniProt P04003); assay: as above
[5] = target: Immunoglobulin lambda variable 3-25/V2-17 protein (Fragment) (human) (UniProt P01717); assay: as above
[6] = target: Alpha-1-antitrypsin precursor/Serpin peptidase inhibitor, clade A, member 1 (human) (UniProt P01009); assay: as above
[7] = target: Dapper homolog 1 (hDPR1) (human) (UniProt Q9NYF0); assay: as above
Dapper homolog 1 (hDPR1) (human), sequence (Q9NYF0 whole entry): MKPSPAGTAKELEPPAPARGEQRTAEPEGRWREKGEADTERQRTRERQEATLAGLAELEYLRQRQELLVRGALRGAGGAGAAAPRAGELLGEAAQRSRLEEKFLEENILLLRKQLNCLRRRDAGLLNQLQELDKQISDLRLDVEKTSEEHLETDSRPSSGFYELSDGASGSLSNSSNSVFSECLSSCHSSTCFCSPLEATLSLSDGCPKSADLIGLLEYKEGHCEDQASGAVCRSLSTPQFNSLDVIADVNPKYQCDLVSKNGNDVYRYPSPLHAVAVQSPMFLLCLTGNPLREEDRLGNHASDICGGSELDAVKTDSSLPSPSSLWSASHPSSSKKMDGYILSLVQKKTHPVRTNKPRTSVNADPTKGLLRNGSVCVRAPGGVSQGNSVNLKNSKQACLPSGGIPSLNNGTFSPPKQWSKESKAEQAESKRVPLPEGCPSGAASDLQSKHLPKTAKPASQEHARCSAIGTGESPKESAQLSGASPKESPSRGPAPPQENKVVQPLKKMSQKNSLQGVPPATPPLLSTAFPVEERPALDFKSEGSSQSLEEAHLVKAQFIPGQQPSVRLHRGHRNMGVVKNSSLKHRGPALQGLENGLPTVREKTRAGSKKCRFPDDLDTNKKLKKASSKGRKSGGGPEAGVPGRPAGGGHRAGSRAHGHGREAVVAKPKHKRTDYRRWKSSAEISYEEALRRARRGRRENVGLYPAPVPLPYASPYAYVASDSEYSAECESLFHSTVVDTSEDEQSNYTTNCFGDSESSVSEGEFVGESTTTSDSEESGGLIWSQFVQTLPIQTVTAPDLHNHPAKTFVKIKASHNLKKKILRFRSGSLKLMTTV

[8] = target: Haptoglobin precursor (human) (UniProt P00738); assay: BiP-Sepharose pull-down, RA synovial fluid sample 1B, 1 M NaCl eluate, MS; may be indirect
[9] = target: IGKV1-5 protein, immunoglobulin kappa variable 1-5 (human) (UniProt P01602); assay: as above
IGKV1-5 protein, immunoglobulin kappa variable 1-5 (human), sequence (P01602 23-117 limits assumed): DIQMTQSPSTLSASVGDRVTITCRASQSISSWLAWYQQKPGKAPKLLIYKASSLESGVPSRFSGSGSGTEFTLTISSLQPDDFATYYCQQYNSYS

[10] = target: 187 kDa protein/Complement component 3 (human) (UniProt P01024); assay: as above
[11] = target: Hypothetical protein DKFZp686I04196 (Fragment)/Immunoglobulin heavy constant gamma 2 (G2m marker)/Ig gamma-2 chain C region (human) [IgG part: P01859]; assay: as above
[12] = target: Histidine-rich glycoprotein precursor (human) (UniProt P04196); assay: as above
Histidine-rich glycoprotein precursor (human), sequence (P04196 19-525 limits assumed): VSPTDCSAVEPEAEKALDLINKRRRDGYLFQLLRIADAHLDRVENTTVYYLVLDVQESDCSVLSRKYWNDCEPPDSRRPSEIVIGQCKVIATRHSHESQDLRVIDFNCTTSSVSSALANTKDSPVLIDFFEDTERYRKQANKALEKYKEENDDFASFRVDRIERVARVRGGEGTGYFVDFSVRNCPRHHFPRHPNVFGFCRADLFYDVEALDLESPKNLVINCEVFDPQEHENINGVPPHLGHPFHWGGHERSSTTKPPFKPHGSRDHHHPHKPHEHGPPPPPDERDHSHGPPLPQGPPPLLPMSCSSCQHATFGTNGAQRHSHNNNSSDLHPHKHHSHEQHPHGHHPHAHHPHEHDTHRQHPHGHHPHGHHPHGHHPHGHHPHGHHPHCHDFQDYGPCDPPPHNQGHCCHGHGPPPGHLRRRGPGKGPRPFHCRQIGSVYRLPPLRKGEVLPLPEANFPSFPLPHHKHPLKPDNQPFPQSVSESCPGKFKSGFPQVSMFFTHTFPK

[13] = target: FLJ00385 protein (Fragment), immunoglobulin heavy constant mu (human) (UniProt P01871); assay: as above
FLJ00385 protein (Fragment), immunoglobulin heavy constant mu (human), sequence (P01871 other isoform, or with tags, fused parts or gaps limits assumed): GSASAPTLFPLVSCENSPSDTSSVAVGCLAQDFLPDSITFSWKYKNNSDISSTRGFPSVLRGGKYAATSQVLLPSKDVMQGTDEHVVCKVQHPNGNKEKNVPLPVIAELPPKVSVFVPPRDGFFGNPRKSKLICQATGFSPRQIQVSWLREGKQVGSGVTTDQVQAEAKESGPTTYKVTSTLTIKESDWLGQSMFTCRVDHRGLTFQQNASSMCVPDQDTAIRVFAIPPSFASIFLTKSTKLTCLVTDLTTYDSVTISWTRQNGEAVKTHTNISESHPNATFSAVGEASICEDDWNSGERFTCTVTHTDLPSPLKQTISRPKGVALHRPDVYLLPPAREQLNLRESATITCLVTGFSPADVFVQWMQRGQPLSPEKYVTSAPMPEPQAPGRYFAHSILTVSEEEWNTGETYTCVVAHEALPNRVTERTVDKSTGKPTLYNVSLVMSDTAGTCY

[14] = target: Vitronectin precursor (Serum-spreading factor/S-protein) (human) (UniProt P04004); assay: as above
Vitronectin precursor (Serum-spreading factor/S-protein) (human), sequence (P04004 20-478 limits assumed): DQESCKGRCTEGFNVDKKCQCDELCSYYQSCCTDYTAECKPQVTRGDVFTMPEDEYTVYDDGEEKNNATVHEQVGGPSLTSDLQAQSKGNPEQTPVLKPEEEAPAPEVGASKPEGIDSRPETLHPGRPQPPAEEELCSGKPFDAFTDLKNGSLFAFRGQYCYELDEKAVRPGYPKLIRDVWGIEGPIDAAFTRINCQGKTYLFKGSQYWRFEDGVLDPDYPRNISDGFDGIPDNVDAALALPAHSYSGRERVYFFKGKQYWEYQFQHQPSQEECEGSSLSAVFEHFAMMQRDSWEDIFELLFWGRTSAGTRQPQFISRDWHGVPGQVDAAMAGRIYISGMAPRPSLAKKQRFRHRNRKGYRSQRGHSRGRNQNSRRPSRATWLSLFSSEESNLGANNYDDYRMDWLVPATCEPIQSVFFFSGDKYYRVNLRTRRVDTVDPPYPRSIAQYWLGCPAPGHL

[15] = target: Apolipoprotein A-II precursor (human) (UniProt P02652); assay: as above
Apolipoprotein A-II precursor (human), sequence (P02652 24-100 limits assumed): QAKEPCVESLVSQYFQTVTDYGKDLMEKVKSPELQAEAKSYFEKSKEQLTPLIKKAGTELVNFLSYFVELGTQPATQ

[16] = target: Apolipoprotein E precursor/Apolipoprotein E/Apolipoprotein E3 (Fragment) (human) (UniProt P02649); assay: as above
Apolipoprotein E precursor/Apolipoprotein E/Apolipoprotein E3 (Fragment) (human), sequence (P02649 19-317 limits assumed): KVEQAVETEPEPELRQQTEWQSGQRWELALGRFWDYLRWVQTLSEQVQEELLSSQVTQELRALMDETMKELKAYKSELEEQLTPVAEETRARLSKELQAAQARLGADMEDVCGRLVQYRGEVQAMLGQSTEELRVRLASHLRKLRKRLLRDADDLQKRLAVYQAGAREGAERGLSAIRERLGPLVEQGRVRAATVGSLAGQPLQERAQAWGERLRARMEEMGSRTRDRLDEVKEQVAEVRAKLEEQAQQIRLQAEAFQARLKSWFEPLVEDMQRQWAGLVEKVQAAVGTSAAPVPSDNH

[17] = target: Isoform 1 of Fibrinogen alpha chain precursor (human) (UniProt P02671); assay: as above
[18] = target: Galectin-3-binding protein precursor (human) (UniProt Q08380); assay: as above
[19] = target: Isoform A of Proteoglycan-4 precursor (human) (UniProt Q92954); assay: as above
[20] = target: Clusterin precursor (human) (UniProt P10909); assay: as above
Clusterin precursor (human), sequence (P10909 23-449 limits assumed, form in doubt): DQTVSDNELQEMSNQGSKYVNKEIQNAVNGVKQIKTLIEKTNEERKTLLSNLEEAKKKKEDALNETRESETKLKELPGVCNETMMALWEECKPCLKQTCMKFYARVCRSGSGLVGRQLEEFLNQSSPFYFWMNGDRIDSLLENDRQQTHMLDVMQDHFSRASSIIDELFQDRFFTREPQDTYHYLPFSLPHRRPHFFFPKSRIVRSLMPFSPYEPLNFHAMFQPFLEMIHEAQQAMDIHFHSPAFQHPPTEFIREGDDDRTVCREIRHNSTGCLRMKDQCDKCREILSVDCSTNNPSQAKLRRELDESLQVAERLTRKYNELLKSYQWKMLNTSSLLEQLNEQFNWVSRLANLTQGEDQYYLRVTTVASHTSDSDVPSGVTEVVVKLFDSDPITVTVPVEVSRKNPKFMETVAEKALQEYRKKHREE

[21] = target: IGHM protein, coagulation factor VII (serum prothrombin conversion accelerator) (human) (UniProt P08709); assay: BiP-Sepharose pull-down, RA synovial fluid sample 2B, 1 M NaCl eluate, MS; may be indirect
[22] = target: Heat shock 70 kDa protein 1L (human) (UniProt P34931); assay: as above
Heat shock 70 kDa protein 1L (human), sequence (P34931 whole entry, the tested form may be a part): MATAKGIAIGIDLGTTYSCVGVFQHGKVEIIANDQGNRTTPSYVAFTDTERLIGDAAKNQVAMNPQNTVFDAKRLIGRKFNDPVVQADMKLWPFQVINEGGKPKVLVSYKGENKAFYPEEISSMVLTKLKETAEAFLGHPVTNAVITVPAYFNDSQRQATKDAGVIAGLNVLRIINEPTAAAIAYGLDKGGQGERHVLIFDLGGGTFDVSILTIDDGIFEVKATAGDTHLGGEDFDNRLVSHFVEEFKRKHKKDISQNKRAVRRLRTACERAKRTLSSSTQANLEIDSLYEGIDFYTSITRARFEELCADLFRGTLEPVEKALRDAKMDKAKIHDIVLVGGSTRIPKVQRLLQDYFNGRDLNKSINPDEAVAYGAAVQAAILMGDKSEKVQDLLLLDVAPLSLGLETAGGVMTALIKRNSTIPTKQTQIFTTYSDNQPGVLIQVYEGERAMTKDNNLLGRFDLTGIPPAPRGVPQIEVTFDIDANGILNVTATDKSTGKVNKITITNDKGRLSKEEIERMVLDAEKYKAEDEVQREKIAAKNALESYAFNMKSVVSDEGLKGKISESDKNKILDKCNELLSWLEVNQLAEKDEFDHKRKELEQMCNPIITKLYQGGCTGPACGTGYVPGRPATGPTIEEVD

[23] = target: Hypothetical protein DKFZp686I04196 (Fragment)/Immunoglobulin heavy constant gamma 2 (G2m marker)/Ig gamma-2 chain C region (human) [IgG part: P01859]; assay: as above
[24] = target: Histidine-rich glycoprotein precursor (human) (UniProt P04196); assay: as above
[25] = target: Neutrophil defensin 1 precursor (human) (UniProt P59665); assay: as above
Neutrophil defensin 1 precursor (human), sequence (P59665 65-94 limits assumed): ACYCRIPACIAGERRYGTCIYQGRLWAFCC

[26] = target: FLJ00385 protein (Fragment), immunoglobulin heavy constant mu (human) (UniProt P01871); assay: as above
[27] = target: fibronectin 1 isoform 4 preproprotein (human) (UniProt P02751); assay: as above
[28] = target: IGHG4 protein, immunoglobulin heavy constant gamma 4 (human) [IgG part: P01861]; assay: as above
[29] = target: Clusterin precursor (human) (UniProt P10909); assay: as above

recombinant human BiP with C-terminal linker, FLAG-tag and His-tag (BiP-FLAG-His), sequence (P11021 other isoform, or with tags, fused parts or gaps): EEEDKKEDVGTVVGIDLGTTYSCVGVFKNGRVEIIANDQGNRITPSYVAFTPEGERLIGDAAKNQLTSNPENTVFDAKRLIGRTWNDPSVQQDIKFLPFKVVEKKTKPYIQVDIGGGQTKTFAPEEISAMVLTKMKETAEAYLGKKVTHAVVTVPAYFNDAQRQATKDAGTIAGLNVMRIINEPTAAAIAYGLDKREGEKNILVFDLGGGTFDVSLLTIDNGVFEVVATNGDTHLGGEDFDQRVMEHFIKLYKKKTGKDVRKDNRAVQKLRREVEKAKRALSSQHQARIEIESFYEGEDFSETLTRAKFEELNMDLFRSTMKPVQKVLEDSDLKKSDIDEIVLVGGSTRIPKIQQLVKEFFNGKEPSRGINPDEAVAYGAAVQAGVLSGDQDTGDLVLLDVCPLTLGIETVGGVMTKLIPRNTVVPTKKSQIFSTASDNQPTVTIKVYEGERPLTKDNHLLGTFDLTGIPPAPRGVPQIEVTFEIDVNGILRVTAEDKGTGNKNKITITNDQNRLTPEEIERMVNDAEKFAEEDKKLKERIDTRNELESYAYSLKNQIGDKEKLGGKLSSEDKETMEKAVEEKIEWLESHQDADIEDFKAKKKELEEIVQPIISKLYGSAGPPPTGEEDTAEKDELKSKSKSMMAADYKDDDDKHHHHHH

recombinant human BiP with C-terminal linker, FLAG-tag and His-tag (BiP-FLAG-His) (from UniProt P11021 19-654)
2 peptides: # of peptides [2] | # of peptides [7] | # of unique peptides [10] | # of unique peptides [12] | # of unique peptides [19] | # of unique peptides [27]
14 peptides: # of peptides [3]
3 peptides: # of unique peptides [9] | # of unique peptides [17]
7 peptides: # of peptides [4]
12 peptides: # of unique peptides [1]
1 peptides: # of peptides [6] | # of unique peptides [8] | # of unique peptides [11] | # of unique peptides [13] | # of unique peptides [14] | # of unique peptides [15] | # of unique peptides [16] | # of unique peptides [18] | # of unique peptides [20] | # of unique peptides [21] | # of unique peptides [22] | # of unique peptides [23] | # of unique peptides [24] | # of unique peptides [25] | # of unique peptides [26] | # of unique peptides [28] | # of unique peptides [29]
10 peptides: # of peptides [5]
